Results from patent publication US10556936B2, “Immunogenic proteins and fragments thereof from allergenic mites” (ALK-ABELLÓ A/S, priority 2016, dated 2020).

How the values were obtained:
Type in all cases: cell-based, human
[1] = tested on: T cell lines obtained from HDM allergic individuals and non-allergics; assay: In vitro T cell proliferation test in T cell lines (Example 3); conditions: 0.5 or 2 ug/ml, 72 h; for % responders of in-vitro T cell proliferation test, Allergic: T cell lines from HDM allergic individuals (n=30); for % responders of in-vitro T cell proliferation test, Non-allergics: T cell lines from non-allergics (n=8)
Text: (§1) This example relates to the further testing of immunogenicity of the proteins identified in Example 1. Their ability to react with IgE antibodies in HDM allergic individuals, to stimulate in vitro T cell proliferation of HDM allergic individuals and non-allergics, and to stimulate ex vivo cytokine production of HDM allergic individuals and non-allergics. The following tests were used: • Basophil Activation Test (BAT) was used as a predictive in vitro assay for indication of safety/immediate hypersensitivity reactions. BAT test was carried out using blood from HDM allergic individuals (n=14), and by use of different concentrations of test proteins or the major house dust mite allergens (Der p 1, Der f 1, Der p 2 or Der f 2, e.g. a concentration of 1, 10, 100 or 1000 ng/ml. • In vitro T cell reactivity determined in T cell lines obtained from HDM allergic individuals (n=30) and non-allergics (n=8): Determined by establishment of HDM specific T-cell lines according to standard methods. In short, PMBCs from HDM allergic donors were cultured for 3 weeks in the presence of house dust mite allergen extract. The responses to proteins at a concentration of 0.5 ug/ml or 2 ug/ml of the test protein or the major house dust mite allergens (Der p 1, Der f 1, Der p 2 or Der f 2) were assessed by proliferation in a standard 72 h T cell proliferation assay, as described in Henmar H et al., Clin Exp Immunol 2008; 153(3):316-23. […]. • Ex vivo stimulation of PBMC cells obtained from mite allergic patients (n=16) and non-allergics (n=6): Determined by measuring the production of the cytokines; IFN-gamma, IL-9, IL-10, IL-17 and IL-31 following stimulation with test protein in concentration up to 10 ug/ml. Freshly isolated PBMC 5×10^6/ml were cultured with a test protein for 5 days and cell supernatant were harvested and stored at −80° C. Cytokines of the supernatants were measured using ProcartaPlex Multiplex Immunoassays with MAGPIX Multiplex Reader according manufactory protocol.

[2] = tested on: PBMC cells obtained from mite allergic patients and non-allergics; assay: Ex vivo stimulation of PBMC: cytokine production (IFN-gamma, IL-9, IL-10, IL-17, IL-31)
Text: as §1

[3] = tested on: basophils in whole blood from HDM allergic donors; assay: Basophil Activation Test (BAT); conditions: blood from HDM allergic individuals (n=14)
Protocol: Basophil Activation Test (BAT) was used as a predictive in vitro assay for indication of safety/immediate hypersensitivity reactions. The BAT assay is a widely used diagnostic test that is also used for evaluation of allergenicity of allergen derived components. In short: whole blood from HDM allergic donors was stimulated for 1 h with the proteins, and the increased expression of activation markers on the surface of basophils were measured by flow cytometry. The BAT test was carried out using different concentrations of the proteins and the allergens Der p 2 and Der p 1 was used as controls and tested in the same concentration rates.
as §1

Molecule	% responders of in-vitro T cell proliferation test, Allergic [1] [%]	% responders of in-vitro T cell proliferation test, Non-allergics [1] [%]	% HDM allergic individuals with cytokine production in ex-vivo T cell assay IL-5 [2] [%]	% HDM allergic individuals with cytokine production in ex-vivo T cell assay IL-9 [2] [%]	% HDM allergic individuals with cytokine production in ex-vivo T cell assay IL-10 [2] [%]	% HDM allergic individuals with cytokine production in ex-vivo T cell assay IL-13 [2] [%]	% HDM allergic individuals with cytokine production in ex-vivo T cell assay IL-17 [2] [%]	% HDM allergic individuals with cytokine production in ex-vivo T cell assay IL-31 [2] [%]	% HDM allergic individuals with cytokine production in ex-vivo T cell assay INF-g [2] [%]	% non-allergic individuals with cytokine production in ex-vivo T cell assay IL-5 [2] [%]	% non-allergic individuals with cytokine production in ex-vivo T cell assay IL-9 [2] [%]	% non-allergic individuals with cytokine production in ex-vivo T cell assay IL-10 [2] [%]	% non-allergic individuals with cytokine production in ex-vivo T cell assay IL-13 [2] [%]	% non-allergic individuals with cytokine production in ex-vivo T cell assay IL-17 [2] [%]	% non-allergic individuals with cytokine production in ex-vivo T cell assay IL-31 [2] [%]	% non-allergic individuals with cytokine production in ex-vivo T cell assay INF-g [2] [%]	# of individuals of 14 with positive BAT test ([3]; 1 ng/ml)	# of individuals of 14 with positive BAT test ([3]; 10 ng/ml)	# of individuals of 14 with positive BAT test ([3]; 100 ng/ml)	# of individuals of 14 with positive BAT test ([3]; 1000 ng/ml)
A014: house dust mite protein; SEQ ID NO: 32 (Der f), 33 (Der p) (protein) IEQVHIALGSNETEIIVTWTEPHKHDDKTSDAVVYYGQAKSSFDQKVKAISEYFKDDKTKYTTYRALLTGLLPGTEYHYRIQMDDLESSIFEFKTLKTGEENWLPRFAIYGDLGYVNEQSLPYLKKDVEQNLFDVIFHIGDFAYDLNDEHGKVGHHFMRSIEPVASKVAYMTCPGNHERHDNFSHYDSRFSMIGDRSQPIHSDKLNKRLNNHFHSMTIGPATIILFSTEYYYYTKYGWQQIEHQYRWLEQELKRANENRQKHPWIIVMGHRPLYCLKMGDDSCDHQTMERKEIRQGIRMHDEGERQYGLEDLFFKYGVDIQFYGHEHFYARLFPIYKYKMYNGTKSKNPYDHPGAPIHITTGSAGNKELHPEFNHLNDWVAEHFYDYGYTRLMFEDKYRIRLQQISDDQHGKVLDEIEIVKSSPQPHWMNVEHH	43	0	6	0	25	6	31	0	13	0	0	33	0	33	0	33	0	0	0	0
A017: house dust mite protein; SEQ ID NO: 21 (Der f), 25 (Der p), 313 (Blo t) (protein) MSSSSGKKYDFSGKVALVTGSSSGIGAAIALQFAQYGAQVTITGRDAAALESVAKRIEAESGHQPLQIVGNLLDQSLPAKLIDGTISKYGRLDFLVNNAGFSTQHRDIHDEKLMEAFDQVYGLNVRAVVQLSQLAATHLEKSKGNIINISSNLSMMPVHIIYSSSKAALDMITKTMAMEFGKKGVRVNSINPGPVATQFMRSLGMPVTFLKENEEFVKELTLLKFVAQPVEIANLASFLASDDARNMTGSIVVNDTGSLLAPRVDFKKLDEIKKK	7	0	0	0	25	0	13	0	6	0	0	33	0	17	0	0	0	0	0	0
A016: house dust mite protein; SEQ ID NO: 28 (Der f), 29 (Der p) (protein) MVKIGINGFGRIGRLVLRAAIKKGVEVAAINDPFLDVKYMVYMFKFDSTHGRYQGEVKEEGGLLVVDGQKIQVFQERNPAEIPWGKVGADYVVESTGVFTTIEKAKAHLAGGAKKVIISAPSADAPMYVMGVNHDKYDPKQQIISNASCTTNCLAPLAKVINDKFGIENGLMTTVHAITATQKTVDGPSGKLWRDGRGAGQNIIPASTGAAKAVGKVIPELNGKLTGMALRVPVPDVSVVDLTVTLKNPASYDEIKAAVKAAAESDHWKGILEYTDEEVVSSDFISDTHSSIFDAKAGIALTPTFVKLIAWYDNEFGYSNRVVDLIKYVASK	7	0	6	0	25	13	13	0	6	0	0	0	0	17	0	0	0	0	0	0
